The values that follow come from the supplement of paper PMC9112550, “Optimization of the antimicrobial peptide Bac7 by deep mutational scanning” (BMC Biology, 2022).
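Further: peptides expressed intracellularly from a pBAD plasmid library in pooled LB shake-flask culture, induced with 0.3% L-arabinose, DNA abundance read by NGS, three biological replicates, DESeq2 with apeglm shrinkage.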

The subject of the data set is Escherichia coli TOP10. As to the kind of experiment: shrunken log2 fold change of peptide-encoding DNA abundance (4.5 h post-induction vs induction); higher = less antimicrobial activity (less host growth inhibition). The settings on record: time post-induction: 4.5 h; library: site-saturation at positions 5, 18, 19, 20.
Turning to RRIRWRPPRLPRPRPRPTKIPRP, the “shrunken log2 fold change” value is 0.0922.

As for RRIRCRPPRLPRPRPRPSQNPRP, the “shrunken log2 fold change” value was -0.141.

Turning to RRIRYRPPRLPRPRPRPAVCPRP, the “shrunken log2 fold change” value was -0.0135.

RRIRWRPPRLPRPRPRPEFIPRP: the “shrunken log2 fold change” value was 0.186.

Consider RRIRSRPPRLPRPRPRPFAWPRP, for which the “shrunken log2 fold change” value is -0.0248.

For RRIRMRPPRLPRPRPRPEGWPRP, the “shrunken log2 fold change” value was 3.15.

Consider RRIRTRPPRLPRPRPRPKWDPRP, for which the “shrunken log2 fold change” value is -0.0626.

Turning to RRIRGRPPRLPRPRPRPYERPRP, the “shrunken log2 fold change” value was -1.8.

Regarding RRIRMRPPRLPRPRPRPDYYPRP, the “shrunken log2 fold change” value was -0.111.

With RRIRNRPPRLPRPRPRPRRHPRP, the “shrunken log2 fold change” value was found to be 0.0212.

In the case of RRIRKRPPRLPRPRPRPGSFPRP, the “shrunken log2 fold change” value amounted to 0.133.

As for RRIRYRPPRLPRPRPRPVVNPRP, the “shrunken log2 fold change” value was -0.683.

RRIRARPPRLPRPRPRPCSEPRP: the “shrunken log2 fold change” value came out at 0.244.

With RRIRTRPPRLPRPRPRPASSPRP, the “shrunken log2 fold change” value was -0.362.

Regarding RRIRCRPPRLPRPRPRPQGQPRP, the “shrunken log2 fold change” value stood at 0.155.

Turning to RRIRVRPPRLPRPRPRPRIVPRP, the “shrunken log2 fold change” value was determined as 0.166.

For the sequence RRIRHRPPRLPRPRPRPKFFPRP, the “shrunken log2 fold change” value was -0.0649.

Take RRIRSRPPRLPRPRPRPGVLPRP: the “shrunken log2 fold change” value came to 0.0866.

Turning to RRIRYRPPRLPRPRPRPLKLPRP, the “shrunken log2 fold change” value was -0.772.

On to RRIRLRPPRLPRPRPRPLKRPRP, for which the “shrunken log2 fold change” value is -0.0716.

Take RRIRYRPPRLPRPRPRPTHHPRP: the “shrunken log2 fold change” value is -0.509.

With RRIRERPPRLPRPRPRPVRQPRP, the “shrunken log2 fold change” value came out at 0.412.

Consider RRIRIRPPRLPRPRPRPEKAPRP, for which the “shrunken log2 fold change” value was -0.0795.

Take RRIRTRPPRLPRPRPRPLFYPRP: the “shrunken log2 fold change” value is -0.467.

For the sequence RRIRTRPPRLPRPRPRPEAGPRP, the “shrunken log2 fold change” value was determined as 0.286.

As for RRIRKRPPRLPRPRPRPFPCPRP, the “shrunken log2 fold change” value is 0.0314.

RRIRWRPPRLPRPRPRPCPQPRP: the “shrunken log2 fold change” value is -0.134.

With RRIRQRPPRLPRPRPRPTPHPRP, the “shrunken log2 fold change” value was 0.397.

For the sequence RRIRYRPPRLPRPRPRPRWCPRP, the “shrunken log2 fold change” value turned out to be 0.246.

With RRIRHRPPRLPRPRPRPPVNPRP, the “shrunken log2 fold change” value is 0.0303.

On to RRIRSRPPRLPRPRPRPWCPPRP, for which the “shrunken log2 fold change” value is -0.549.

For RRIRWRPPRLPRPRPRPMWGPRP, the “shrunken log2 fold change” value came out at 0.117.

Turning to RRIRQRPPRLPRPRPRPLSFPRP, the “shrunken log2 fold change” value is -0.415.

Turning to RRIRYRPPRLPRPRPRPLYMPRP, the “shrunken log2 fold change” value was -0.441.

As to RRIRCRPPRLPRPRPRPSKVPRP, the “shrunken log2 fold change” value was -0.156.

In the case of RRIRCRPPRLPRPRPRPSSKPRP, the “shrunken log2 fold change” value is -0.48.

As for RRIRERPPRLPRPRPRPGVIPRP, the “shrunken log2 fold change” value was -0.0985.

As for RRIRGRPPRLPRPRPRPGQYPRP, the “shrunken log2 fold change” value was -0.0691.

As for RRIRKRPPRLPRPRPRPMNIPRP, the “shrunken log2 fold change” value is -0.213.

As to RRIRIRPPRLPRPRPRPMYPPRP, the “shrunken log2 fold change” value is -0.0642.

With RRIRWRPPRLPRPRPRPPGAPRP, the “shrunken log2 fold change” value came out at 0.904.

On to RRIRVRPPRLPRPRPRPFYLPRP, for which the “shrunken log2 fold change” value is -0.449.

On to RRIRSRPPRLPRPRPRPLGVPRP, for which the “shrunken log2 fold change” value came to 0.0588.

As to RRIRPRPPRLPRPRPRPAAWPRP, the “shrunken log2 fold change” value came out at 0.377.

As for RRIRFRPPRLPRPRPRPAQTPRP, the “shrunken log2 fold change” value amounted to 0.0962.

Regarding RRIRFRPPRLPRPRPRPIKIPRP, the “shrunken log2 fold change” value was -0.539.

Turning to RRIRLRPPRLPRPRPRPKDQPRP, the “shrunken log2 fold change” value is -0.271.

RRIRCRPPRLPRPRPRPCYKPRP: the “shrunken log2 fold change” value came out at 0.0187.

As for RRIRKRPPRLPRPRPRPHNVPRP, the “shrunken log2 fold change” value was -0.097.

Regarding RRIRDRPPRLPRPRPRPVYLPRP, the “shrunken log2 fold change” value is -0.219.

With RRIRERPPRLPRPRPRPPCDPRP, the “shrunken log2 fold change” value is -0.187.

For the sequence RRIRCRPPRLPRPRPRPTMPPRP, the “shrunken log2 fold change” value was -0.281.

RRIRPRPPRLPRPRPRPRLCPRP: the “shrunken log2 fold change” value came out at 0.646.

For the sequence RRIRGRPPRLPRPRPRPKFWPRP, the “shrunken log2 fold change” value worked out at 0.533.

In the case of RRIRTRPPRLPRPRPRPWMTPRP, the “shrunken log2 fold change” value was -0.0339.

On to RRIRARPPRLPRPRPRPVLKPRP, for which the “shrunken log2 fold change” value is 0.22.

RRIRYRPPRLPRPRPRPMFKPRP: the “shrunken log2 fold change” value is -0.825.

RRIRERPPRLPRPRPRPMHYPRP: the “shrunken log2 fold change” value was -0.0285.

In the case of RRIRHRPPRLPRPRPRPRFHPRP, the “shrunken log2 fold change” value was -0.162.

As for RRIRSRPPRLPRPRPRPPFWPRP, the “shrunken log2 fold change” value was 0.837.

On to RRIRPRPPRLPRPRPRPTWWPRP, for which the “shrunken log2 fold change” value was 0.426.

Consider RRIRHRPPRLPRPRPRPLNHPRP, for which the “shrunken log2 fold change” value is -0.785.

RRIRNRPPRLPRPRPRPHEKPRP: the “shrunken log2 fold change” value was -0.0437.

For RRIRARPPRLPRPRPRPRANPRP, the “shrunken log2 fold change” value was determined as 0.694.

In the case of RRIRWRPPRLPRPRPRPAPWPRP, the “shrunken log2 fold change” value was found to be 0.319.

RRIRTRPPRLPRPRPRPHGPPRP: the “shrunken log2 fold change” value was 0.157.

Take RRIRKRPPRLPRPRPRPGAGPRP: the “shrunken log2 fold change” value was 0.734.

For RRIRRRPPRLPRPRPRPPMEPRP, the “shrunken log2 fold change” value is -0.0681.

Consider RRIRVRPPRLPRPRPRPEYLPRP, for which the “shrunken log2 fold change” value was -0.191.

Take RRIRERPPRLPRPRPRPSAWPRP: the “shrunken log2 fold change” value is 0.0177.

RRIRYRPPRLPRPRPRPAEHPRP: the “shrunken log2 fold change” value is -0.0954.

As to RRIRYRPPRLPRPRPRPHFMPRP, the “shrunken log2 fold change” value was -0.0918.

Regarding RRIRSRPPRLPRPRPRPHVEPRP, the “shrunken log2 fold change” value worked out at 0.121.

Consider RRIRRRPPRLPRPRPRPFTSPRP, for which the “shrunken log2 fold change” value was -0.0327.

For the sequence RRIRGRPPRLPRPRPRPPWAPRP, the “shrunken log2 fold change” value is 0.769.

Take RRIRFRPPRLPRPRPRPNRHPRP: the “shrunken log2 fold change” value was -0.874.

Regarding RRIRSRPPRLPRPRPRPSGYPRP, the “shrunken log2 fold change” value is -0.443.

RRIRQRPPRLPRPRPRPGTDPRP: the “shrunken log2 fold change” value was -0.0507.

On to RRIRYRPPRLPRPRPRPRFDPRP, for which the “shrunken log2 fold change” value is -0.51.

Turning to RRIRKRPPRLPRPRPRPQVNPRP, the “shrunken log2 fold change” value is -0.124.

In the case of RRIRQRPPRLPRPRPRPSWMPRP, the “shrunken log2 fold change” value is -0.0569.

Take RRIRQRPPRLPRPRPRPITCPRP: the “shrunken log2 fold change” value is -0.0276.

As for RRIRGRPPRLPRPRPRPLHMPRP, the “shrunken log2 fold change” value stood at 0.379.

Consider RRIRCRPPRLPRPRPRPILGPRP, for which the “shrunken log2 fold change” value was -0.378.

On to RRIRHRPPRLPRPRPRPCHLPRP, for which the “shrunken log2 fold change” value is -0.113.

As to RRIRPRPPRLPRPRPRPNYVPRP, the “shrunken log2 fold change” value is -0.352.

Regarding RRIRNRPPRLPRPRPRPQMYPRP, the “shrunken log2 fold change” value is -0.864.

For the sequence RRIRKRPPRLPRPRPRPGQCPRP, the “shrunken log2 fold change” value turned out to be 0.0394.

Take RRIRKRPPRLPRPRPRPCELPRP: the “shrunken log2 fold change” value was -0.00602.

Take RRIRYRPPRLPRPRPRPDFAPRP: the “shrunken log2 fold change” value stood at 0.0515.

With RRIRDRPPRLPRPRPRPYYQPRP, the “shrunken log2 fold change” value is -1.03.

Consider RRIRLRPPRLPRPRPRPDFAPRP, for which the “shrunken log2 fold change” value stood at 0.0202.

For the sequence RRIRYRPPRLPRPRPRPHAGPRP, the “shrunken log2 fold change” value is 0.0561.

For the sequence RRIRMRPPRLPRPRPRPIARPRP, the “shrunken log2 fold change” value is 0.184.

As for RRIRWRPPRLPRPRPRPESMPRP, the “shrunken log2 fold change” value came out at 0.636.

With RRIRIRPPRLPRPRPRPAALPRP, the “shrunken log2 fold change” value was -0.134.

With RRIRCRPPRLPRPRPRPRYNPRP, the “shrunken log2 fold change” value is -0.465.

With RRIRARPPRLPRPRPRPRHNPRP, the “shrunken log2 fold change” value is -0.0548.

As to RRIRYRPPRLPRPRPRPPSSPRP, the “shrunken log2 fold change” value was -0.154.

For the sequence RRIRDRPPRLPRPRPRPPWHPRP, the “shrunken log2 fold change” value is 0.148.

In the case of RRIRDRPPRLPRPRPRPQIAPRP, the “shrunken log2 fold change” value is 0.0211.

In the case of RRIRDRPPRLPRPRPRPEMDPRP, the “shrunken log2 fold change” value stood at 0.0766.

As for RRIRRRPPRLPRPRPRPVICPRP, the “shrunken log2 fold change” value came to 0.164.

In the case of RRIRFRPPRLPRPRPRPKVNPRP, the “shrunken log2 fold change” value is -0.266.

On to RRIRMRPPRLPRPRPRPDWHPRP, for which the “shrunken log2 fold change” value is -0.136.

In the case of RRIRHRPPRLPRPRPRPTQQPRP, the “shrunken log2 fold change” value was found to be 0.0495.

For RRIRLRPPRLPRPRPRPCMWPRP, the “shrunken log2 fold change” value is -0.0832.

Regarding RRIRLRPPRLPRPRPRPAYSPRP, the “shrunken log2 fold change” value is -0.354.

Take RRIRCRPPRLPRPRPRPPSLPRP: the “shrunken log2 fold change” value stood at 0.413.

For RRIRQRPPRLPRPRPRPMTDPRP, the “shrunken log2 fold change” value is -0.0989.

On to RRIRFRPPRLPRPRPRPDTNPRP, for which the “shrunken log2 fold change” value was -0.208.

On to RRIRKRPPRLPRPRPRPFENPRP, for which the “shrunken log2 fold change” value stood at 0.167.

With RRIRERPPRLPRPRPRPAEWPRP, the “shrunken log2 fold change” value was 0.143.

For the sequence RRIRVRPPRLPRPRPRPYENPRP, the “shrunken log2 fold change” value is -0.293.

For the sequence RRIRPRPPRLPRPRPRPVIDPRP, the “shrunken log2 fold change” value is -0.0426.

Consider RRIRNRPPRLPRPRPRPREDPRP, for which the “shrunken log2 fold change” value turned out to be 0.102.

RRIRGRPPRLPRPRPRPSEKPRP: the “shrunken log2 fold change” value is 1.49.

Consider RRIRMRPPRLPRPRPRPMAIPRP, for which the “shrunken log2 fold change” value amounted to 0.227.

RRIRGRPPRLPRPRPRPWFTPRP: the “shrunken log2 fold change” value was -0.221.

Consider RRIRYRPPRLPRPRPRPATSPRP, for which the “shrunken log2 fold change” value was -0.452.

On to RRIRCRPPRLPRPRPRPFWFPRP, for which the “shrunken log2 fold change” value was -0.245.

As for RRIRGRPPRLPRPRPRPRDKPRP, the “shrunken log2 fold change” value is 0.373.

RRIRRRPPRLPRPRPRPNLMPRP: the “shrunken log2 fold change” value was 0.85.

Turning to RRIRPRPPRLPRPRPRPWIKPRP, the “shrunken log2 fold change” value was -0.0265.

As for RRIRKRPPRLPRPRPRPWQWPRP, the “shrunken log2 fold change” value was 0.0199.
